One molecule from PMC10989928, “Cell division factor ZapE regulates Pseudomonas aeruginosa biofilm formation by impacting the pqs quorum sensing system” (mLife, 2023) can be followed below.

The assay has as its target T1, MBP-PqsH, recombinant (P. aeruginosa PAO1, UniProt Q9I0Q0 1-382).
T1 construct: also called PqsH protein; source: E. coli BL21 (DE3), pMAL-C5x, purified (Dextrin Beads 6FF, Mono Q ion exchange, Superdex 200 gel filtration)
T1 sequence: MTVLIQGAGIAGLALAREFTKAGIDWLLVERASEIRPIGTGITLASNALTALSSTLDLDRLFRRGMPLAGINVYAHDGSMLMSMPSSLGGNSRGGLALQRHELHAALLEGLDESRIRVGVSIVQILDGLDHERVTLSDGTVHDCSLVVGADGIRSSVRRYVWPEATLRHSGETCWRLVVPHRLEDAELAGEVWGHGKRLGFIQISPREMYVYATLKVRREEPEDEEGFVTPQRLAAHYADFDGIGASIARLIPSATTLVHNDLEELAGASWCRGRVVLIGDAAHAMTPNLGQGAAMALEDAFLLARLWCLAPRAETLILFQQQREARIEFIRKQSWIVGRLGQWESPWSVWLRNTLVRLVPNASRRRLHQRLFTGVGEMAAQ
Nature of the assay: SPR. To be noted: both partners purified.

B1: HIS-ZapE, recombinant (natural protein, P. aeruginosa PAO1, UniProt Q9HVX7 1-364, looked up)
chain: MTPLERYQADLQRPDFFHDAAQANAVKHLQRLYDDLVAADHAKPGLFGKLLGRKSGGPVKGLYFWGGVGRGKTYLVDTFFESLPFEQKVRTHFHRFMKRVHEELKTLKGEKNPLTIIGKRFADEARVICFDEFFVSDITDAMILATLLEELFKNGVSLVATSNIVPDGLYKDGLQRARFLPAIALLKEHTEIVNVDSGVDYRLRALEQAELFHWPLSEQVEEEMARSFKALTPDCAKAQRDEALMIENREIRARLTCDDVAWFEFRELCDGPRSQNDYIELAKIFHAVLISNVEQMGVTKDDMARRFINLVDEFYDRSVKLIISAEVELKDLYSGGRLEFEFQRTLSRLLEMQSHEYLTRPHRP
notes: also called PA4438; ZapE protein; source: E. coli BL21 (DE3), pET28a, purified (Ni NTA beads, Mono Q ion exchange, Superdex 200 gel filtration)
Regarding B1, the binding result was “binds”.
